Measurements from PMC1964548, “Structural and Functional Analyses of Five Conserved Positively Charged Residues in the L1 and N-Terminal DNA Binding Motifs of Archaeal RadA Protein” (PLoS ONE, 2007).

Target: the molecule itself
Assay: crystal structure; hanging drop vapor diffusion; SsoRadA 24 mg/ml in 30 mM Tris-HCl pH 8.0; reservoir 100 mM KCl, 25 mM MgCl2, 15% isopropanol, 50 mM sodium cacodylate pH 6.0; space group P3_(1), 1.93 Å; 3_(1) overwound right-handed filament

B1: Sulfolobus solfataricus RadA (natural protein, UniProt Q55075 1-324, looked up)
chain: MSNEVEQKKNIKTINDLPGISQTVINKLIEAGYSSLETLAVASPQDLSVAAGIPLSTAQKIIKEARDALDIRFKTALEVKKERMNVKKISTGSQALDGLLAGGIETRTMTEFFGEFGSGKTQLCHQLSVNVQLPPEKGGLSGKAVYIDTEGTFRWERIENMAKALGLDIDNVMNNIYYIRAINTDHQIAIVDDLQELVSKDPSIKLIVVDSVTSHFRAEYPGRENLAVRQQKLNKHLHQLTRLAEVYDIAVIITNQVMARPDMFYGDPTVAVGGHTLYHVPGIRIQLKKSRGNRRIARVVDAPHLPEGEVVFALTEEGIRDAEE
notes: RadA of Sulfolobus solfataricus; Forms a helical filament in the crystal (three protomers per turn, 98 Å pitch; three protomers in the asymmetric unit, each belonging to a filament of its own); also called SsoRadA; wild-type SsoRadA; source: expressed and purified as described previously [16]
binding result: binds
